Laboratory results published in patent publication US20230134580A1 (SHANGHAI HENLIUS BIOTECH, published 2023).
Where two headings read alike, the source gives them in different places. One block for each binder: values may come before it.

Experiments:
[1] = biological target: T1, human TIGIT (T cell immunoreceptor with Ig and ITIM domains), expressed on cells (human, UniProt Q495A1 22-244); assay: cell-based or functional assay
T1 sequence: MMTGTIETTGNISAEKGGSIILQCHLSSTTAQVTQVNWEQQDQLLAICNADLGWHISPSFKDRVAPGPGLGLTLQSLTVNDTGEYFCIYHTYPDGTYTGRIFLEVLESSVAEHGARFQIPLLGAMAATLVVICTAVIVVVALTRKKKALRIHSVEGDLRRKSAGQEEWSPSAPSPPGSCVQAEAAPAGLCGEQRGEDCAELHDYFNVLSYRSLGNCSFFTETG

[2] = biological target: T1, human TIGIT (T cell immunoreceptor with …); assay: cell-based or functional assay; remark: listed apart in the source
[3] = biological target: T1, human TIGIT (T cell immunoreceptor with …); assay: cell-based or functional assay; remark: listed apart in the source
[4] = biological target: T1, human TIGIT (T cell immunoreceptor with …); assay: cell-based or functional assay; remark: listed apart in the source
[5] = biological target: T2, recombinant human TIGIT extracellular domain (ECD) (human, UniProt Q495A1 22-138); assay: blocking ELISA, VHH clone against PVR binding to h-TIGIT
T2 construct: Bought protein (Arco Bio); also called h-TIGIT ECD; h-TIGIT
T2 sequence: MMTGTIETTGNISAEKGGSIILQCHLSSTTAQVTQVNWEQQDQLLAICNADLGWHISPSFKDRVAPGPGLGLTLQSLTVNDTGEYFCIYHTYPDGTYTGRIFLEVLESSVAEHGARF

[6] = biological target: T1, human TIGIT (T cell immunoreceptor with …); assay: flow cytometry, whole cell binding to Jurkat cells stably expressing human TIGIT; Alexa Fluor 488 anti-human IgG Fc secondary antibody
From the text: FIGS. 1A-1C depict whole cell binding of representative VHH bivalent antibodies to human TIGIT determined by flowcytometry assays. […] Y axis represents Mean Fluorescence Intensity of AlexaFlour 488. X axis represents antibody concentrations in nanomolar. […] FIG. 1C is a schematic of the structure of a TIGIT VHH bivalent antibody.
Jurkat cells stably expressing human TIGIT and NFAT reporter gene were established. Specifically, Jurkat cells were transfected with human TIGIT expression vector by electroporation, and cells stably expressing human TIGIT were selected by 1 μg/ml puromycin during cell culture. Representative antibody clones were incubated at different concentrations with h-TIGIT stably expressing Jurkat cells (0.2×10^6/ml) in 100 μl/well in 96-well plate in FACS buffer (PBS with 1.5% FBS) for 30 min. After washing, Alexaflour 488 conjugated anti-human IgG Fc secondary antibody (Alexa Fluor® 488 AffiniPure Goat Anti-Human IgG, Fcγ fragment specific, Jackson labs, 1:500 dilution) was added and incubated for 30 min. After washing, mean fluorescence intensity was measured using CytoFlex (Beckman Coulter) by gating live cell population. Binding affinity was calculated using GraphPad Prism.

[7] = biological target: T1, human TIGIT (T cell immunoreceptor with …); assay: flow cytometry, whole cell binding to Jurkat cells stably expressing human TIGIT; anti-human IgG Fc AlexaFluor488
Experimental: Y axis is values of Mean Fluorescence Intensity of AlexaFlour 488. X axis is values of antibody concentrations in nanomolar.
The binding affinities of the humanized bivalent antibodies to human TIGIT were determined by whole cell binding to h-TIGIT stably expressed on Jurkat cells. Briefly, antibodies were incubated with h-TIGIT transfected Jurkat cells (0.2×10⁶/well in 100 μl) for 30 min in FACS buffer. The cells were washed once, then incubated with anti-human IgG Fc AlexaFluor488 (1:500).

EC50 (read off the curve), NFAT luciferase reporter, TIGIT blockade [1]: ~2 nM
B1: 1C12-EREF humanized bivalent antibody (Fc fusion)
VHH: QVQLVESGGGVVQPGRSLRLSCAASSRIFSRYGMGWFRQAPGKEREFVAAISWNGASTTYTDSVKGRFTISRDNSKNTLYLQMNSLRAEDTAVYYCAADPWGAVKLGTAEYEYWGQGTQVTVSS

EC50 (read off the curve), NFAT luciferase reporter, TIGIT blockade [2]: ~1 nM | EC50 (read off the curve), NFAT luciferase reporter, TIGIT blockade [1]: ~0.7 nM | EC50 (read off the curve), NFAT luciferase reporter, TIGIT blockade [3]: ~0.8 nM
B2: 1C12-chimeric (1C12 bivalent VHH antibody) (Fc fusion, not shown: small tags and cut ends)
chain: QVQLVESGGGLVQTGDSLRLSCAASSRIFSRYGMGWFRQAPGKEREFVAAISWNGASTTYTDSVKGRFTISRDSAENTTYLQINSLRPEDTAVYYCAADPWGAVKLGTAEYEYWGQGTQVTVSS

EC50 (read off the curve), NFAT luciferase reporter, TIGIT blockade [1]: ~2 nM
B3: 1C12-GLEW humanized bivalent antibody (Fc fusion)
VHH: QVQLVESGGGVVQPGRSLRLSCAASSRIFSRYGMGWFRQAPGKGLEWVAAISWNGASTTYTDSVKGRFTISRDNSKNTLYLQMNSLRAEDTAVYYCAADPWGAVKLGTAEYEYWGQGTQVTVSS

EC50 (read off the curve), NFAT luciferase reporter, TIGIT blockade [1]: ~3 nM
B4: 1C12-EREW humanized bivalent antibody (Fc fusion)
VHH: QVQLVESGGGVVQPGRSLRLSCAASSRIFSRYGMGWFRQAPGKEREWVAAISWNGASTTYTDSVKGRFTISRDNSKNTLYLQMNSLRAEDTAVYYCAADPWGAVKLGTAEYEYWGQGTQVTVSS

EC50 (read off the curve), NFAT luciferase reporter, TIGIT blockade [4]: ~0.3 nM
B5: 3F10 bivalent VHH antibody (Fc fusion)
VHH: QVQLVESGGGLVQAGGSLRLSCASSEHTFSNFPMGWFRQAPGKERNVVAAIDSSGRLTYYADSVKGRFTISKDNAKSTVYLQMNSLKSEDTARYYCAARTGGVGYYSRSSFYNYWGQGTLVTVSS

% inhibition of PVR binding to h-TIGIT [5]: > 90%
B6: 3F10 VHH (VHH)
VHH: QVQLVESGGGLVQAGGSLRLSCASSEHTFSNFPMGWFRQAPGKERNVVAAIDSSGRLTYYADSVKGRFTISKDNAKSTVYLQMNSLKSEDTARYYCAARTGGVGYYSRSSFYNYWGQGTLVTVSS
notes: Tested as VHH in SS320 culture supernatant

EC50 (read off the curve), NFAT luciferase reporter, TIGIT blockade [4]: ~0.7 nM
B7: 2B10 bivalent VHH antibody (Fc fusion)
VHH: QVKLEESGGGLVQTGDSLRLSCAASSRIFRRYAMGWFRQAPGKEREFVAAITWSGASTTYTDSVKGRFTISRDSAENTTYLQMTSLRPEDTAVYYCAADPWGSVIVGTAEYEYWGQGTLVTVSS

% inhibition of PVR binding to h-TIGIT [5]: > 90%
B8: 2B10 VHH (VHH)
VHH: QVKLEESGGGLVQTGDSLRLSCAASSRIFRRYAMGWFRQAPGKEREFVAAITWSGASTTYTDSVKGRFTISRDSAENTTYLQMTSLRPEDTAVYYCAADPWGSVIVGTAEYEYWGQGTLVTVSS
notes: as for B6

% inhibition of PVR binding to h-TIGIT [5]: > 90%
B9: 1C12 VHH (VHH)
VHH: QVQLVESGGGLVQTGDSLRLSCAASSRIFSRYGMGWFRQAPGKEREFVAAISWNGASTTYTDSVKGRFTISRDSAENTTYLQINSLRPEDTAVYYCAADPWGAVKLGTAEYEYWGQGTQVTVSS
notes: as for B6

% inhibition of PVR binding to h-TIGIT [5]: > 90%
B10: 15A5 VHH (VHH)
VHH: QVQLVESGGGLVQAGGSLRLSCAASERTFSSFAMGWFRQAPGKEREVVAAIDPSGRYIYYKDSVKGRFTMSRDNAKSTVYLQMNSLKPDDTARYYCAARIRGEGYYTRSSFYHYWGQGTQVTVSS
notes: as for B6

EC50 (read off the curve), NFAT luciferase reporter, TIGIT blockade [4]: ~3 nM
B11: 3G6 bivalent VHH antibody (Fc fusion)
VHH: QVQLVESGGGLVQAGGSLSLSCAASGSIFGISVMGWYRQAPGEQRDLVATLTRAGLTTYGDSVKGRFSISRDSAKNTVYLQMNNLKPEDTAVYYCHANIMESAASTFGRYWGQGTQVTVSS

% inhibition of PVR binding to h-TIGIT [5]: > 90%
B12: 3G6 VHH (VHH)
VHH: QVQLVESGGGLVQAGGSLSLSCAASGSIFGISVMGWYRQAPGEQRDLVATLTRAGLTTYGDSVKGRFSISRDSAKNTVYLQMNNLKPEDTAVYYCHANIMESAASTFGRYWGQGTQVTVSS
notes: as for B6

EC50 (read off the curve), NFAT luciferase reporter, TIGIT blockade [2]: ~1 nM | EC50 (read off the curve) [6]: ~0.2 nM
B13: 2B7 bivalent VHH antibody (Fc fusion)
VHH: QVQLVESGGGLVQAGGSLRLACAASGRTFSSYPMGWFRQGPGKERESVAAISSDGRFTYYAASVKGRFTISKDNAKSAAFLQMNSLKPEDTAVYYCAARDSGSGYYSRAQWYDYWGQGTQVTVSS
notes: Bivalent VHH-CH2-CH3, ExpiCHO, Protein A purified

% inhibition of PVR binding to h-TIGIT [5]: > 90%
B14: 13H11 VHH (VHH)
VHH: QVQLVESGGGLVQAGGSLRLSCAASGLTFSMYAMGWFRQGPGKERESVAAISSDGRFTYYAASVKGRFTISKDNAKSAAFLQMNSLKPEDTAVYYCAARDSGSGYYSRAQWYDYWGQGTQVTVSS
notes: as for B6

% inhibition of PVR binding to h-TIGIT [5]: > 90%
B15: 2B7 VHH (VHH)
VHH: QVQLVESGGGLVQAGGSLRLACAASGRTFSSYPMGWFRQGPGKERESVAAISSDGRFTYYAASVKGRFTISKDNAKSAAFLQMNSLKPEDTAVYYCAARDSGSGYYSRAQWYDYWGQGTQVTVSS
notes: as for B6

EC50 (read off the curve), NFAT luciferase reporter, TIGIT blockade [2]: ~1 nM | EC50 (read off the curve), NFAT luciferase reporter, TIGIT blockade [3]: ~0.7 nM | EC50 (read off the curve) [6]: ~0.1 nM | EC50 (read off the curve) [7]: ~0.08 nM
B16: 1G1-chimeric (1G1 bivalent VHH antibody) (Fc fusion)
chain: QVQLVESGGGLVQAGDSLRLSCVASGPSFSSYPMGWFRQGPGKERESVAAISSDGRFTYYAASVKGRFTISKDNAKSAAFLQMNSLKPEDTAVYYCAARDSGSGYYSRAQWYDYWGQGTLVTVSS
notes: Llama VHH of 1G1 with human IgG1 CH2 and CH3 domains; also called chimeric clone; not shown: human IgG1 CH2 and CH3 domains

% inhibition of PVR binding to h-TIGIT [5]: > 90%
B17: 1G1 VHH (VHH)
VHH: QVQLVESGGGLVQAGDSLRLSCVASGPSFSSYPMGWFRQGPGKERESVAAISSDGRFTYYAASVKGRFTISKDNAKSAAFLQMNSLKPEDTAVYYCAARDSGSGYYSRAQWYDYWGQGTLVTVSS
notes: as for B6

EC50 (read off the curve), NFAT luciferase reporter, TIGIT blockade [3]: 1 to 1.6 nM | EC50 (read off the curve) [7]: ~0.2 nM
B18: 1G1-F-G-ERES humanized bivalent antibody (Fc fusion)
VHH: QVQLVESGGGVVQPGRSLRLSCAASGPSFSSYPMGWFRQGPGKERESVAAISSDGRFTYYADSVKGRFTISRDNSKNTLYLQMNSLRAEDTAVYYCAARDSGSGYYSRAQWYDYWGQGTLVTVSS
notes: Humanized on germline IGHV-3-30*01

EC50 (read off the curve), NFAT luciferase reporter, TIGIT blockade [4]: ~1 nM | EC50 (read off the curve) [6]: ~0.3 nM
B19: 3G7 bivalent VHH antibody (Fc fusion)
VHH: QVQLVESGGGLVQAGDSLRLSCEASGRTLSTYTMGWFRRAPGKEREFVGLAWPSPSTYVVDSVKGRFTISRDNAKNTIYLQMNSLKPEDTAIYYCAADYKSLTQSWLNAALDYWGQGTQVTVSS
notes: as for B13

% inhibition of PVR binding to h-TIGIT [5]: > 90%
B20: 3G7 VHH (VHH)
VHH: QVQLVESGGGLVQAGDSLRLSCEASGRTLSTYTMGWFRRAPGKEREFVGLAWPSPSTYVVDSVKGRFTISRDNAKNTIYLQMNSLKPEDTAIYYCAADYKSLTQSWLNAALDYWGQGTQVTVSS
notes: as for B6
